What all share (test): SPR (Biacore), recombinant antigen (extracellular domain) immobilized by amine coupling, Fab as analyte, 1:1 binding mass transfer model
(In SPR one partner is held on a chip, and binding of the other changes the refractive index at the surface.)

Experiment [1] has as its target recombinant CD3 antigen ( (the Fab labels human PBMCs)). As to the method: (§1) FIGS. 7A and 7B show surface plasmon resonance sensorgrams of anti-CD25 rFabs using immobilized recombinant CD25 antigen. At t 110 sec, different concentrations of Fab were injected for 180 sec. At t 290 sec, the dissociation phase started.
(§2) The Fab variants of example 1 and 4 were analyzed by surface plasmon resonance spectroscopy (Biacore™). Therefore, the specific recombinant antigen (extracellular domain, expressed in mammalian cells) for a Fab was immobilized on a CMS chip by standard amine coupling. The Fab variants were used as analytes in HBS-EP buffer (0.01 M HEPES pH 7.4, 0.15 M NaCl, 3 mM EDTA, 0.005% v/v Surfactant P20) in a concentration of up to 2 μM Fab. Evaluation was conducted with the Biacore™ X-100 Evaluation Software using an 1:1 binding mass transfer model.

The target in experiment [2] is T1, recombinant CD4 antigen ( (the Fab labels human PBMCs), UniProt P01730).
T1 construct: extracellular domain; also called CD4, recombinant extracellular domain
As to the method:
as §1, §2

For experiment [3], the target named is T2, recombinant CD45RA antigen ( (the Fab labels human PBMCs)).
T2 construct: extracellular domain; also called CD45RA, recombinant extracellular domain
On the procedure: as §1, §2

The target in experiment [4] is T3, recombinant CD25 antigen ( (the Fab labels human PBMCs), UniProt P01589).
T3 construct: extracellular domain; also called immobilized recombinant CD25 antigen; CD25, recombinant extracellular domain
T3 sequence (antigen, looked up): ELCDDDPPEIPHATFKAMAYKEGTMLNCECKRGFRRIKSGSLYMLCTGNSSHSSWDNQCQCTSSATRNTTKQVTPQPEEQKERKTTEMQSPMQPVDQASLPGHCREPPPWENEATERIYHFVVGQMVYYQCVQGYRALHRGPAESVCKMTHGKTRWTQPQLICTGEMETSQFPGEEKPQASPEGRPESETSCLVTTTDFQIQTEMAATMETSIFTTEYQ
On the procedure: as §1, §2

Experiment [5] has as its target T4, recombinant CD28 antigen ( (the Fab labels human PBMCs), UniProt P10747).
T4 construct: extracellular domain; also called CD28, recombinant extracellular domain
On the procedure: as §1, §2

recombinant CD3 antigen ( (the Fab labels human PBMCs)), sequence (chain, as listed by the source): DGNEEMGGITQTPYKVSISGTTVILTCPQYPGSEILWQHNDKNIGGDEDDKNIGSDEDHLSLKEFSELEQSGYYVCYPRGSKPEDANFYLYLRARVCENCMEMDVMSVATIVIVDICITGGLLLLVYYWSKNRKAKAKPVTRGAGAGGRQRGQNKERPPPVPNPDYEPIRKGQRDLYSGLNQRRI

B1: OKT3-hum rFab (Fab, V domains shown)
VH: QVQLVQSGGGVVQPGRSLRLSCKASGYTFTRYTMHWVRQAPGKGLEWIGYINPSRGYTNYNQKVKDRFTISRDNSKNTAFLQMDSLRPEDTGVYFCARYYDDHYSLDYWGQGTPVTVSS
VL: DIQMTQSPSSLSASVGDRVTITCSASSSVSYMNWYQQTPGKAPKRWIYDTSKLASGVPSRFSGSGSGTDYTFTISSLQPEDIATYYCQQWSSNPFTFGQGTKLQITR
modifications: For the cell assay: biotin (thiol-reactive reagent) on cysteine(s) of the reduced disulfide bridge, position not stated
notes: Recombinant Fab from E. coli; purified by IMAC; also called humanized variant of anti-CD3 clone OKT3; anti-CD3 rFab
For orientation: Kd means the concentration at which binding is half-saturated. As a reminder, the koff is a measure of how fast the partners let go of each other. As usually defined, the kon is a measure of how fast the partners come together. Regarding B1, in experiment [1], the dissociation constant Kd is 46 nM, the off-rate (koff) is 0.19 s⁻¹ and the kon was 4.1e+06 M⁻¹ s⁻¹.

B2: 13B8.2-LAV rFab (Fab, V domains shown)
VH: QVQLKQSGPGLVQPSQSLSITCTVSGFSLTTFGVHWVRQSPGKGLEWLGVIWASGITDYNVPFMSRLSITKDNSKSQVFFKLNSLQPDDTAIYYCAKNDPGTGFAYWGQGTLVTVSA
VL: DIQMTQSPASLSASVGETVTFTCRASENIYSYLAWYQQKQGKSPQLLVHDAKTLAEGVPSRFSGGGSGTQFSLKINTLQPEDFGTYYCQHAYGNPPTFGGGTKLEIKR
modifications: For the cell assay: biotin (thiol-reactive reagent) on cysteine(s) of the reduced disulfide bridge, position not stated
notes: Recombinant Fab from E. coli; heavy chain optionally followed by a poly-histidine tag; Biotinylated for the cell assay; also called mutated variant of anti-CD4 clone 13B8.2
On to B2, for which, in experiment [2], the Kd is 15000 nM, the koff is 0.006 s⁻¹ and the kon is 410 M⁻¹ s⁻¹.

B3: MEM56-LAV rFab (Fab, V domains shown)
VH: QVQLQQSGAELAKPGASVKMSCKASGYNFTRYWMHWIKQRPGQGLEWIGYINPNTGHTEYNQKFKDKATLTADKSSSTAYMQLSSLTSEDSAVYYCATYYYGSRRDAGQGTTLTVSS
VL: QIVLTQSPAIMSASLGERVTMTCTTSSSVSSSYLHWYQQKPGSSPKLWIYSTSNLASGVPARFSGSGSGTSYSLTISTVEAEDAATYYCHQYHRSPLTFGAGTKLELKR
modifications: In the cell assay the Fab was biotinylated with a thiol-reactive reagent (e.g. maleimide-PEO2-biotin) on cysteines of the reduced disulfide bridge; positions not stated.
notes: Recombinant Fab from E. coli; heavy chain optionally followed by a poly-histidine tag; Biotinylated for the cell assay; also called mutated variant of anti-CD45RA clone MEM56
As to B3, in experiment [3], the Kd was determined as 1300 nM, the koff was determined as 0.11 s⁻¹ and the kon was 88000 M⁻¹ s⁻¹.

B4: RFT5 rFab (Fab, V domains shown)
VH: EVQLQQSGTVLARPGASVKMSCKASGYSFTRYWMHWIKQRPGQGLEWIGAIYPGNSDTSYNQKFEGKAKLTAVTSASTAYMELSSLTHEDSAVYYCSRDYGYYFDFWGQGTTLTVSS
VL: QIVLTQSPAIMSASPGEKVTMTCSASSSISYMQWYQQKPGTSPKRWIYDTSKLASGVPARFSGSGSGTSYSLTISSMEAEDAATYYCHQRSSYTFGGGTKLEIKR
modifications: For the cell assay: biotin (thiol-reactive reagent) on cysteine(s) of the reduced disulfide bridge, position not stated
notes: Recombinant Fab from E. coli; heavy chain optionally followed by a poly-histidine tag; Biotinylated for the cell assay; also called anti-CD25 rFab (based on clone RFT5)
Turning to B4, in experiment [4], the Kd came to 0.2 nM, the koff was determined as 0.00038 s⁻¹ and the association rate constant (kon) was 1.9e+06 M⁻¹ s⁻¹.

B5: RFT5-LAV rFab (Fab, V domains shown)
VH: EVQLQQSGTVLARPGASVKMSCKASGYSFTRYWMAWIKQRPGQGLEWIGAIYPGNSDTSYNQKFEGKAKLTAVTSASTAYMELSSLTHEDSAVYYCSRDYGYYFDFAGQGTTLTVSS
VL: QIVLTQSPAIMSASPGEKVTMTCSASSSISYMQWYQQKPGTSPKRWIYDTSKLASGVPARFSGSGSGTSYSLTISSMEAEDAATYYCHQRSSYTFGGGTKLEIKR
modifications: For the cell assay: biotin (thiol-reactive reagent) on cysteine(s) of the reduced disulfide bridge, position not stated
notes: Recombinant Fab from E. coli; heavy chain optionally followed by a poly-histidine tag; Biotinylated for the cell assay; also called mutated variant of anti-CD25 clone RFT5
B5: in experiment [4], the Kd is 21 nM, the koff is 0.21 s⁻¹ and the kon amounted to 1e+07 M⁻¹ s⁻¹.

B6: 15E8-hum rFab (Fab, V domains shown)
VH: QVQLQESGPGLVKPSETLSLTCTVSGFSLTSYGVHWIRQPPGKGLEWLGVIWAGGSTNYNSSLKSRVTISKDTSKNQVSLKLSSVTAADTAVYYCARDKRAPGKLYYGYPDYWGQGTTLTVSS
VL: DIVMTQSPDSLAVSLGERATINCRASESVEYYVTSLMQWYQQKPGQPPKLLIYAASNVESGVPARFSGSGSGTDFTLTISPLQAEDVAVYYCQQTRKVPSTFGGGTKLEIKR
modifications: For the cell assay: biotin (thiol-reactive reagent) on cysteine(s) of the reduced disulfide bridge, position not stated
notes: Recombinant Fab from E. coli; heavy chain optionally followed by a poly-histidine tag; Biotinylated for the cell assay; also called humanized variant of anti-CD28 clone 15E8
Regarding B6, in experiment [5], the Kd was 21 nM, the off-rate (koff) was 0.089 s⁻¹ and the kon amounted to 4.3e+06 M⁻¹ s⁻¹.

The values are drawn from patent publication US20180217151A1 (MILTENYI BIOTEC, published 2018).
